According to the supplement of paper PMC10266784:

B1: library; numbered along this chain (parent)
chain: MAAAAAAAAEQQSSNGPVKKSMREKAVERRSVNKEHNSNFKAGYIPIDEDRLHKTGLRGRKGNLAICVIILLFILAVINLIITLVIWAVIRIGPNGCDSMEFHESGLLRFKQVSDMGVIHPLYKSTVGGRRNENLVITGNNQPIVFQQGTTKLSVENNKTSITSDIGMQFFDPRTQNILFSTDYETHEFHLPSGVKSLNVQKASTERITSNATSDLNIKVDGRAIVRGNEGVFIMGKTIEFHMGGNMELKAENSIILNGSVMVSTTRLPSSSSGDQLGSGDWVRYKLCMCADGTLFKVQVTSQNMGCQISDNPCGNTH

Variants of: B1
Test: SGCB cell-surface expression functional score (HA stain, bin4 vs bin1, normalised to synonymous) (log10 ratio); higher = more cell-surface SGCB (functional)
Summary of the method: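 Codon-saturation libraries of HA-tagged, YFP-fused human beta-sarcoglycan were lentivirally transduced at MOI <0.1 into HEK293 cells stably expressing alpha-, gamma- and delta-sarcoglycan. YFP-positive cells were sorted after 72 hours, grown 5–7 days, stained on ice with Alexa Fluor 647 anti-HA, fixed, sorted into four 5% intensity bins and amplicon-sequenced. The functional score is the log ratio of highest-bin to lowest-bin variant frequency, taken as the median over codons and duplicate transductions. Synonymous variants were scaled per section to mean 0, SD 0.5.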

| Variant | SGCB cell-surface expression functional score (log10) |
| --- | --- |
| MAAAAAAAAEQQSSNGPVKKSMREKAVERRSVNKEHNSNFKAGYIPIDEDRLHKTGLRGRKGNLAICVIILLFILAVINLIITLVIWAVIRIGPNGCDSMEFHESGLLRFKRVSDMGVIHPLYKSTVGGRRNENLVITGNNQPIVFQQGTTKLSVENNKTSITSDIGMQFFDPRTQNILFSTDYETHEFHLPSGVKSLNVQKASTERITSNATSDLNIKVDGRAIVRGNEGVFIMGKTIEFHMGGNMELKAENSIILNGSVMVSTTRLPSSSSGDQLGSGDWVRYKLCMCADGTLFKVQVTSQNMGCQISDNPCGNTH [Q112R] | 0.07 |
| MAAAAAAAAEQQSSNGPVKKSMREKAVERRSVNKEHNSNFKAGYIPIDEDRLHKTGLRGRKGNLAICVIILLFILAVINLIITLVIWAVIRIGPNGCDSMEFHESGLLRFKFVSDMGVIHPLYKSTVGGRRNENLVITGNNQPIVFQQGTTKLSVENNKTSITSDIGMQFFDPRTQNILFSTDYETHEFHLPSGVKSLNVQKASTERITSNATSDLNIKVDGRAIVRGNEGVFIMGKTIEFHMGGNMELKAENSIILNGSVMVSTTRLPSSSSGDQLGSGDWVRYKLCMCADGTLFKVQVTSQNMGCQISDNPCGNTH [Q112F] | -0.97 |
| MAAAAAAAAEQQSSNGPVKKSMREKAVERRSVNKEHNSNFKAGYIPIDEDRLHKTGLRGRKGNLAICVIILLFILAVINLIITLVIWAVIRIGPNGCDSMEFHESGLLRFKKVSDMGVIHPLYKSTVGGRRNENLVITGNNQPIVFQQGTTKLSVENNKTSITSDIGMQFFDPRTQNILFSTDYETHEFHLPSGVKSLNVQKASTERITSNATSDLNIKVDGRAIVRGNEGVFIMGKTIEFHMGGNMELKAENSIILNGSVMVSTTRLPSSSSGDQLGSGDWVRYKLCMCADGTLFKVQVTSQNMGCQISDNPCGNTH [Q112K] | -0.1 |
| MAAAAAAAAEQQSSNGPVKKSMREKAVERRSVNKEHNSNFKAGYIPIDEDRLHKTGLRGRKGNLAICVIILLFILAVINLIITLVIWAVIRIGPNGCDSMEFHESGLLRFKLVSDMGVIHPLYKSTVGGRRNENLVITGNNQPIVFQQGTTKLSVENNKTSITSDIGMQFFDPRTQNILFSTDYETHEFHLPSGVKSLNVQKASTERITSNATSDLNIKVDGRAIVRGNEGVFIMGKTIEFHMGGNMELKAENSIILNGSVMVSTTRLPSSSSGDQLGSGDWVRYKLCMCADGTLFKVQVTSQNMGCQISDNPCGNTH [Q112L] | -0.73 |
| MAAAAAAAAEQQSSNGPVKKSMREKAVERRSVNKEHNSNFKAGYIPIDEDRLHKTGLRGRKGNLAICVIILLFILAVINLIITLVIWAVIRIGPNGCDSMEFHESGLLRFKIVSDMGVIHPLYKSTVGGRRNENLVITGNNQPIVFQQGTTKLSVENNKTSITSDIGMQFFDPRTQNILFSTDYETHEFHLPSGVKSLNVQKASTERITSNATSDLNIKVDGRAIVRGNEGVFIMGKTIEFHMGGNMELKAENSIILNGSVMVSTTRLPSSSSGDQLGSGDWVRYKLCMCADGTLFKVQVTSQNMGCQISDNPCGNTH [Q112I] | 0.03 |
| MAAAAAAAAEQQSSNGPVKKSMREKAVERRSVNKEHNSNFKAGYIPIDEDRLHKTGLRGRKGNLAICVIILLFILAVINLIITLVIWAVIRIGPNGCDSMEFHESGLLRFKPVSDMGVIHPLYKSTVGGRRNENLVITGNNQPIVFQQGTTKLSVENNKTSITSDIGMQFFDPRTQNILFSTDYETHEFHLPSGVKSLNVQKASTERITSNATSDLNIKVDGRAIVRGNEGVFIMGKTIEFHMGGNMELKAENSIILNGSVMVSTTRLPSSSSGDQLGSGDWVRYKLCMCADGTLFKVQVTSQNMGCQISDNPCGNTH [Q112P] | -1.14 |
| MAAAAAAAAEQQSSNGPVKKSMREKAVERRSVNKEHNSNFKAGYIPIDEDRLHKTGLRGRKGNLAICVIILLFILAVINLIITLVIWAVIRIGPNGCDSMEFHESGLLRFKGVSDMGVIHPLYKSTVGGRRNENLVITGNNQPIVFQQGTTKLSVENNKTSITSDIGMQFFDPRTQNILFSTDYETHEFHLPSGVKSLNVQKASTERITSNATSDLNIKVDGRAIVRGNEGVFIMGKTIEFHMGGNMELKAENSIILNGSVMVSTTRLPSSSSGDQLGSGDWVRYKLCMCADGTLFKVQVTSQNMGCQISDNPCGNTH [Q112G] | -0.59 |
| MAAAAAAAAEQQSSNGPVKKSMREKAVERRSVNKEHNSNFKAGYIPIDEDRLHKTGLRGRKGNLAICVIILLFILAVINLIITLVIWAVIRIGPNGCDSMEFHESGLLRFKNVSDMGVIHPLYKSTVGGRRNENLVITGNNQPIVFQQGTTKLSVENNKTSITSDIGMQFFDPRTQNILFSTDYETHEFHLPSGVKSLNVQKASTERITSNATSDLNIKVDGRAIVRGNEGVFIMGKTIEFHMGGNMELKAENSIILNGSVMVSTTRLPSSSSGDQLGSGDWVRYKLCMCADGTLFKVQVTSQNMGCQISDNPCGNTH [Q112N] | -1.32 |
| MAAAAAAAAEQQSSNGPVKKSMREKAVERRSVNKEHNSNFKAGYIPIDEDRLHKTGLRGRKGNLAICVIILLFILAVINLIITLVIWAVIRIGPNGCDSMEFHESGLLRFKHVSDMGVIHPLYKSTVGGRRNENLVITGNNQPIVFQQGTTKLSVENNKTSITSDIGMQFFDPRTQNILFSTDYETHEFHLPSGVKSLNVQKASTERITSNATSDLNIKVDGRAIVRGNEGVFIMGKTIEFHMGGNMELKAENSIILNGSVMVSTTRLPSSSSGDQLGSGDWVRYKLCMCADGTLFKVQVTSQNMGCQISDNPCGNTH [Q112H] | 0.02 |
| MAAAAAAAAEQQSSNGPVKKSMREKAVERRSVNKEHNSNFKAGYIPIDEDRLHKTGLRGRKGNLAICVIILLFILAVINLIITLVIWAVIRIGPNGCDSMEFHESGLLRFKMVSDMGVIHPLYKSTVGGRRNENLVITGNNQPIVFQQGTTKLSVENNKTSITSDIGMQFFDPRTQNILFSTDYETHEFHLPSGVKSLNVQKASTERITSNATSDLNIKVDGRAIVRGNEGVFIMGKTIEFHMGGNMELKAENSIILNGSVMVSTTRLPSSSSGDQLGSGDWVRYKLCMCADGTLFKVQVTSQNMGCQISDNPCGNTH [Q112M] | -0.17 |
